Kd data for 2 molecules are collected here from US20230002478A1 (TWIST BIOSCIENCE, published 2023).

The target in assay [1] is T1, SARS-CoV-2 S1 (HV69-70del, N501Y, D614G) (SARS-CoV-2, UniProt P0DTC2 16-685).
T1 construct: domain: S1
Kind of assay: SPR. For orientation: Surface plasmon resonance follows binding to a sensor surface in real time, without labels.

Assay [2] has as its target T2, SARS-CoV-2 S1 (HV69-70del, Y453F, D614G) (SARS-CoV-2, UniProt P0DTC2 16-685).
T2 construct: domain: S1
Kind of assay: SPR.

A word on the Kd: it is the free concentration of one partner at which half of the binding sites on the other are occupied at equilibrium, for simple one-to-one binding. A low value points to higher affinity.

B1: 6-3 (Fc fusion)
chain: EVQLVESGGGLVQPGGSLRLSCAASGFTFSPSWMGWFRQAPGKEREFVATINEYGGRNYADSVKGRFTISADNSKNTAYLQMNSLKPEDTAVYYCARVDRDFDYWGQGTLVTVSS
Consider B1, for which the values for the dissociation constant (Kd) in assay [1] and in assay [2] were 9.3 nM and 23 nM, respectively.

B2: 6-63 (Fc fusion)
chain: EVQLVESGGGLVQPGGSLRLSCAASGQTFNMGWFRQAPGKEREFVAAIGSGGSTSYADSVKGRFTISADNSKNTAYLQMNSLKPEDTAVYYCWRLGNDYFDYWGQGTLVTVSS
Take B2: the results for the dissociation constant (Kd) in assay [1] and in assay [2] were 63 nM and 96 nM, respectively.
